Values of other authors as cited in US8013186B2, “Haloalkyl containing compounds as cysteine protease inhibitors” (Virobay, Inc., priority 2004, dated 2011).

Settings: in clinical trials

OKT3: murine monoclonal antibody directed towards CD-3 domain of activated T-cells
patients administered OKT3 who produce antibodies versus the therapy: 20-40%
